Measurements taken from paper PMC6985446.
Changes are numbered by the printed parent chain.

What was measured:
Test in all cases: EMSA
Details in all cases: 10 mM Tris pH 8, 150 mM KCl, 500 nM EDTA, 0.1% Triton X-100, 12.5% glycerol, 1 mM DTT, 1 ug poly(dI-dC), 4 C, 30 min
[1] = target: T1, HetR S130A S130A (Nostoc PCC 7120) (UniProt P27709)
T1 sequence: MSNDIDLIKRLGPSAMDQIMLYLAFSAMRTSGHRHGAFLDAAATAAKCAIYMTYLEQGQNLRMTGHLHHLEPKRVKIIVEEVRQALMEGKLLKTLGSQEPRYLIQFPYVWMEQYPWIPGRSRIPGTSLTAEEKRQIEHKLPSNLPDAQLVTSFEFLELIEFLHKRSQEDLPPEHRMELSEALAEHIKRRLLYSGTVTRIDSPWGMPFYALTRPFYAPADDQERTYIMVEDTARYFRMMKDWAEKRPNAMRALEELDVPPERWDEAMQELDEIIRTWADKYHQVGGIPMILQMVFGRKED

[2] = target: T2, HetR S179A S179A (Nostoc PCC 7120) (UniProt P27709)
T2 sequence: T1 sequence with A130S, S179A

[3] = target: T3, HetR S127A S127A (Nostoc PCC 7120) (UniProt P27709)
T3 sequence: T1 sequence with S127A, A130S

[4] = target: T4, HetR S130D S130D (Nostoc PCC 7120) (UniProt P27709)
T4 sequence: T1 sequence with A130D

Sequence: TGAGTTATACGCTATATCAATGGGGATTTTGAGCATTTTCTACTAGGTAATGAGGGGTTAGACCCCTCGCCTACTGTGCATTTGAGACTTTAAACCTACTAAGAGAATTTACCACTAAAT (double strand) [hetP promoter]
- binding [1]: binds
- binding [2]: no binding
- binding [3]: binds
- binding [4]: binds
